Biological target: the molecule itself
Assay: native gel or EMSA

B1: acid-gated ASIC1 channel (natural protein, mouse (endogenous in brain), UniProt Q6NXK8 1-526, looked up)
chain: MELKTEEEEVGGVQPVSIQAFASSSTLHGLAHIFSYERLSLKRALWALCFLGSLAVLLCVCTERVQYYFCYHHVTKLDEVAASQLTFPAVTLCNLNEFRFSQVSKNDLYHAGELLALLNNRYEIPDTQMADEKQLEILQDKANFRSFKPKPFNMREFYDRAGHDIRDMLLSCHFRGEACSAEDFKVVFTRYGKCYTFNSGQDGRPRLKTMKGGTGNGLEIMLDIQQDEYLPVWGETDETSFEAGIKVQIHSQDEPPFIDQLGFGVAPGFQTFVSCQEQRLIYLPSPWGTCNAVTMDSDFFDSYSITACRIDCETRYLVENCNCRMVHMPGDAPYCTPEQYKECADPALDFLVEKDQEYCVCEMPCNLTRYGKELSMVKIPSKASAKYLAKKFNKSEQYIGENILVLDIFFEVLNYETIEQKKAYEIAGLLGDIGGQMGLFIGASILTVLELFDYAYEVIKHRLCRRGKCQKEAKRNSADKGVALSLDDVKRHNPCESLRGHPAGMTYAANILPHHPARGTFEDFTC
stoichiometry N: 3

B2: voltage-gated HCN1 channel (natural protein, mouse (endogenous in brain), UniProt O88704 1-910, looked up)
chain: MEGGGKPNSASNSRDDGNSVFPSKAPATGPVAADKRLGTPPGGGAAGKEHGNSVCFKVDGGGGEEPAGSFEDAEGPRRQYGFMQRQFTSMLQPGVNKFSLRMFGSQKAVEKEQERVKTAGFWIIHPYSDFRFYWDLIMLIMMVGNLVIIPVGITFFTEQTTTPWIIFNVASDTVFLLDLIMNFRTGTVNEDSSEIILDPKVIKMNYLKSWFVVDFISSIPVDYIFLIVEKGMDSEVYKTARALRIVRFTKILSLLRLLRLSRLIRYIHQWEEIFHMTYDLASAVVRIFNLIGMMLLLCHWDGCLQFLVPLLQDFPPDCWVSLNEMVNDSWGKQYSYALFKAMSHMLCIGYGAQAPVSMSDLWITMLSMIVGATCYAMFVGHATALIQSLDSSRRQYQEKYKQVEQYMSFHKLPADMRQKIHDYYEHRYQGKIFDEENILSELNDPLREEIVNFNCRKLVATMPLFANADPNFVTAMLSKLRFEVFQPGDYIIREGAVGKKMYFIQHGVAGVITKSSKEMKLTDGSYFGEICLLTKGRRTASVRADTYCRLYSLSVDNFNEVLEEYPMMRRAFETVAIDRLDRIGKKNSILLQKFQKDLNTGVFNNQENEILKQIVKHDREMVQAIPPINYPQMTALNCTSSTTTPTSRMRTQSPPVYTATSLSHSNLHSPSPSTQTPQPSAILSPCSYTTAVCSPPIQSPLATRTFHYASPTASQLSLMQQPQQQLPQSQVQQTQTQTQQQQQQQQQQQQQQQQQQQQQQQQQQQQQQQQQQQQQPQTPGSSTPKNEVHKSTQALHNTNLTKEVRPLSASQPSLPHEVSTLISRPHPTVGESLASIPQPVAAVHSTGLQAGSRSTVPQRVTLFRQMSSGAIPPNRGVPPAPPPPAAVQRESPSVLNTDPDAEKPRFASNL
stoichiometry N: 4

Source: paper PMC10592209 (Neuron, 2023)
